The values that follow come from a protein production outcome set (Wang et al. 2014).

The nature of this data set: label from the status in PepcDB records.
Turning to “MINYNKTQHLIESMVFERVVPGVNYAFIKNKQIFTSTTGFASIYPEVTQLSPFAEYDLASLTKVLATENVLLKLYDQGELNFTEPLKEFIPTFKDPKVRLYHLLTHTSGIRGWIPHRDELSHDELLNALINLPVTDEFEHKMRYADTNFILLGLVIKSIFGASVQEVATKEIFDQMPLINTTFTPNKSECVPTAIINDQVLQGIPHDPKARQLGLDCGSAGLFSNMRDLITFSQGYLGLKRNVLPYSQDTVSELFDDKTPKGVKPRSWGWDIRFDPKYHYPIILHTGFTGTLIILDRLKKSGLILLTNRVHPTGHNTIFLAMREKIIRSFLNENSKI”, the protein production result is listed as “failed”. As for “MNMLVINGTPRKHGRTRIAASYIAALYHTDLIDLSEFVLPVFNGEAEQSELLKVQELKQRVTKADAIVLLSPEYHSGMSGALKNALDFLSSEQFKYKPVALLAVAGGGKGGINALNNMRTVMRGVYANVIPKQLVLDPVHIDVENATVAENIKESIKELVEELSMFAKAGNPGV”, the protein production result is given as “not failed”. In the case of “MSNNNKYFTITKKQYKKMRRNKIELLFNVKVLKKKNGRQKFKILHEVENKPKIPIKIIEDQPESPKPLKPPKPPKPPKGPDNPEEPDSPEEPKETDQPGGPDNPNAGNKKMPTPEEYVTRKEFNEFKDSNNQRLTKIENKVDKLEVKVDKLAEIVQTQGEEIKELKVEQKAQSETLQLILKTLQKMNDRLDRMETRLDKIDSPKLEHHHHHH”, the protein production entry is recorded as “not failed”. On to “MDSTGASQIVSALDVIYSPKSNNSQRQEAQKFLDEVKLCSESPFWGYEIALQNPTNSILKYFGLGLLDHAVKKNWNDYDEGKRVALRKWVMELNFGVQDYDTRYIKEKLATLWVEVAKRTWGEALKQTNPTEEQLLTSWVDMDNNLFELWNINQSSRELALIIFRILFEDVFLLDDLIVLKRMTVIQPLCVMIVCPIEVFAIKYKFSDKWTKFKANEEGWFSVWIPELNNALQQNNSEYIIRLLETLKTCLNWPLTEVIVRNDVLSSLLTCLSSNIPRAQSMALDSIHILLTRPYSNESHYQMTIDRVFDNMDLLDSVYESLLFDPTDDIDETKYPIIKKFVDMISCLYVCVPKIKETNGQIQKYFKLVLKTTYNPSLIVSGLTLDLWCTCLRNDEYLPKLEKYVIPDLLQFAADALVYYEQIDGHISKKFAEIDFQSKSEFQTFCSTYRKRIRDIIRLISCVELDLTYDWLNNRLNNYFSSPFGQQVLSSTFLDHKLEPYLGALSQYMIVECFINGCIRWKIWYPTGDDYDEKLDSILQKLEILSNQLIALNLREPLLLKKQIQNFALFLTMLKDNVLFTLLEKIITSATMDYPEINLEERGAESDAVRDLRYACGIELNRMALLMPESLKKIYPDLESVIARIMPNLSYHEKISFKSFLLIIVLKSSLDMKEERFAAIVDPELLAWSDKTTVVGLSDLHWFMERLGIVQIAEYFQRRDIDENSDLLSIPIDDEGKELKSELTKRWQSLFPVRATRMFIHYSMQSIKTDEEFKMLQDLWRPRIVPILPYITRLLYQLQSYHDPDNWKGLPTVVQSFVKYSTIERFWEAGASNKSKDEFIDEHMKAMQTLRDFADSVGHIIRYTREYTLLVLSAISSLGSVFYLLDESPDLLLNSIAIFKPGSNEISPGVSTHGWKHIMNIAIRPILKGCPKDCLGKFMPAFLPKLFEILDLLLCQKWSSHMNDMDMNPVPTDDDQMTEEILEENLLRQLTTVVVRIVIDCVGQGNANPNSAKSRLNNHQMEMRKIIFNDLNTLAPFLKLLNHLISFKDTKCSFNSILVMKCCLTSVLNQNNTVDEYFTFEVMKNLLLNVLCNSAFKDSFHEALYAFTVIFLTLCKEYPSARAFLFEISNGYNIDELYRNLRSVDEYKTQRALMIDFIDWVKSTSGKEDGNVDHAGDERKRQEKREAILKKANERLIKKNKENGDMLDDPNIEDGAVGNLFDDN”, for which the protein production result was “failed”. Consider “MLDSFKSALQQFAASIRFKFKSLRSYKYVPQIDSRDCGVAALASIAKYYGSDYSLAHLRELAKTSKEGTTALGIVEAAKKMKFETRAIKADMSLFDVEDIPYPFIVHIVKDGKLQHYYVVYGQEKEKVIIGDPDPTVKIATPVQIAICRRMDRCCYFSGT”, for which the protein production entry is given as “failed”. Take “MKGLRRLVLDVLKPHEPKTIVFALKLSELENVDGVNIHLSEIDQATENIKITILGNNLDYEQIKGVIEDLGGVIHSVDEVVAGKIIVESVKTEQDLEHHHHHH”: the protein production entry is “failed”. For “MSGKNEADSKDTGWEQIKDKGKIVVATSGTLYPTSYHDTDSGSDKLTGYEVEVVREAAKRLGLKVEFKEMGIDGMLTAVNSGQVDAAANDIDVTKDREEKFAFSTPYKYSYGTAIVRKDDLSGIKTLKDLKGKKAAGAATTVYMEVARKYGAKEVIYDNATNEQYLKDVANGRTDVILNDYYLQTLALAAFPDLNITIHPDIKYMPNKQALVMKKSNAALQKKMNEALKEMSKDGSLTKLSKQFFNKADVSKKIDADVQDVDLLEHHHHHH”, the protein production result is on record as “not failed”. In the case of “MKTTTIFTAALLACLSAPAHAQDLRGSEAGAVMKRESDVRDYYELQQRLKESRESRPEEAVTDRTEPAPQPPADGGQRVFISHIVTDPSEILTEDDLRQVVAPLEGKEVSIRELLAMVDRINDLYRQKGYLTARAVLPPQKVERGTVRIRLVEGRVGRISVGGNRHTRDWFVTSRLHLREGDLVRLDTLENDLFRFNAINDVKLRAEVKPGTATGTTDLILRTQEPDNYRVVAFADNGGGRYIGQERLGLTLQDLSLLGIRDPLTVGGTVADGTLSAHASYSLPLTPVGTRLGVTYDYTSIWITSGPFESLDVDGTSSDLGLTLSQPFALSPALSVTTFAGFNWKKSTTDFGGDTIFENRTRTLTLGGDLLAIDGYGTWFTRHVLTQGFHDFGGDRSFFKYNGDLVRTFILPDDFSALVRASGQVSGNHLLPSSEQFQLGGIATVRGFYEGLLIGDDGYFVSAELTLPLFPADASVYDVRLSPLLRGAIFFDHGGAFPYKGSGESIDHNDFLSSAGFGFILNLAKYLTGRIDFGFPVGERDPDPGTVRVHFSLSSEIL” it was “failed”. As to “KAKAAFFDIDGTLYREGLISEVFKKLIKYEIIDEEKWYKEVRPEFEKWDNRKGDYDDYLLKMTEIYVDALNGLSKSQVEFIASQVVNQKGERVYTYTRDRIKWHKERGHKIITISGSPIELVRNMAEKYGFDDYRGAEYLLDENDVYTGEVIPMWDSKSKERAVHELEAKYNIDLGESYAYGDTSGDLTMLKMVGNPVCINPTKELVKEILSDEEVKNKIRIIVERK”, the protein production entry is reported as “not failed”. The entry for “QYMSYDRNAFGNQVMGQFGNASGSVTSNKIFGFRSDILLQLLNMKISKDHQELNQNQVIQLVPTYLQQLYNEMNNGDPTMYKDLLNLHSNIVHPSGMYMNPLLYANQNPNAAGYNQGTGGVPPMAGGSVAHGPPAAPAP” is “failed”. Regarding “SASRGKTETSKLKQNLEEQLDRLMQQLQDLEECREELDTDEYEETKKETLEQLSEFNDSLKKIMSGNMTLVDELSGMQLAIQAAISQAFKTPEVIRLFAKKQPGQLRTRLAEMDRDLMVGKLERDLYTQQKVEILTALRKLGEKLTADDEAFLSANAGAILSQFEKVSTDLGSGDKILALASFEVEKTKK”, the protein production entry is given as “not failed”.

Regarding “MDMKRRIHLELRNRTPAAVRELVLDNCKSNDGKIEGLTAEFVNLEFLSLINVGLISVSNLPKLPKLKKLELSENRIFGGLDMLAEKLPNLTHLNLSGNKLKDISTLEPLKKLECLKSLDLFNCEVTNLNDYRESVFKLLPQLTYLDGYDREDQEAPDSDAEVDGVDEEEEDEEGEDEEDEDDEDGEEEEFDEEDDEDEDVEGDEDDDEVSEEEEEFGLDEEDEDEDEDEEEEEGGKGEKRKRETDDEGEDD”, the protein production result was “not failed”. In the case of “MTSALNRLQPLNGNNMKLKTLLLFVALIQSVVSMAQQDWKGDYTRAKQVYQLQKYEIAMEYFLPVTSPDAANPYASYAQYYYSLSAYKAGKYNEARQMLLQLINRDPNWKQISEAHYLLAGVYFELKQYRFGMTSLTFVQGMESSVTTFRQSYYAKIAPLDTLIKLQRVYSSDKELAKALFNQLAAYPVNSKNNMLYEYLAQEFKFTKLNRTVTYVTKTEYHVAVILPFNLSESNSENYKSGYAYEMYQGILTAVDSLKEDGVTIKIHTYDADRDVMKIQAILNYPEMKGMDLIIGPLFPSLIPYVTNFGELNNIPVINPISFNSNIIENKTQTLLFQPTLESIAGQVSSFAKEKFVYRKNSSKDNDLKPKNNVLIFYSTELKDSLLAVYYRDSLQVKGFKVSKFVKVTKENIGTVGKIFSDSISLLTTSHVFVASGEPVLASNIVSALEISRQNVPVITKSDWLDINNQTYEQFERRNIYIIYPDYFAFYTDAYRSFKAAYIKKYNVYPSKYTIIGYELMSLVGDKMRTAGTGYFNLMRTSPVSKGHFTAGYDFSKKPCNNYVPIYYFSDLKLTLANPFDEK”, the protein production result is given as “failed”.
